Results reported in patent publication US20160235855A1, “STABLE AQUEOUS PARENTERAL PHARMACEUTICAL COMPOSITIONS OF INSULINOTROPIC PEPTIDES” (SHANGHAI BENEMAE PHARMACEUTICAL CORPORATION, priority 2013, published 2016).
Where two headings read alike, the source gives them in different places.

Legend:
[1] = Thioflavine T fluorescence value (gelatination, physical stability); format: physicochemical; conditions: 35 days
Procedure: A monitoring method for physical stability of the pH value was the fluorescence value, that is, thioflavine T was added into the sample at a final concentration of 5 μmol/L, then the fluorescence absorption value was determined (at an excitation wavelength of 435 nm, and an emission wavelength of 485 nm). The higher the absorption value is, the severer the gelatination phenomena of the sample is, and the poorer the physical stability is.

[2] = Long-term stability of GLP-1 formulations by HPLC; format: physicochemical
Procedure: The GLP-1 purity was determined by comparing the GLP-1 peak area with the total peak area.

[3] = Absorption values at 360 nm (physical stability); format: physicochemical; conditions: for Absorption values at 360 nm: 8 days
From the text: If there was evident precipitation or turbidity, no further determination would be carried out. If the samples had no abnormal phenomena observable with the naked eye, the samples were taken and subjected to determination of absorption values at 360 nm and HPLC detection, wherein the former investigated the physical stability, and the latter investigated the chemical stability.
Absorption values determined at a wavelength of 360 nm were compared, so as to compare differences in physical stability among the samples. A higher absorption value indicated poorer physical stability.

[4] = WO00/37098, cited from earlier work

Glucagon-like peptide 1 [GLP-1] gave a Fluorescence value ([1]; pH 3.6, NaCl below 20 mmol/L, 35° C.) of 9.95, a Fluorescence value ([1]; pH 3.7, NaCl below 20 mmol/L, 25° C.) of 9.11 and a Fluorescence value ([1]; pH 3.7, NaCl below 20 mmol/L, 35° C.) of 14.55. It also gave a Fluorescence value ([1]; pH 3.8, NaCl below 20 mmol/L, 25° C.) of 11.01, a Fluorescence value ([1]; pH 3.8, NaCl below 20 mmol/L, 35° C.) of 31.58 and a Fluorescence value ([1]; pH 3.9, NaCl below 20 mmol/L, 25° C.) of 26.46. For the same substance, the Fluorescence value ([1]; pH 3.9, NaCl below 20 mmol/L, 35° C.) was 78.27, the Fluorescence value ([1]; pH 4.0, NaCl below 20 mmol/L, 25° C.) was 59.32 and the Fluorescence value ([1]; pH 4.0, NaCl below 20 mmol/L, 35° C.) was 113.18. The Fluorescence value ([1]; pH 4.1, NaCl below 20 mmol/L, 25° C.) was 139.48, the Fluorescence value ([1]; pH 4.1, NaCl below 20 mmol/L, 35° C.) was 157.00 and the storage duration ([2]; 2 to 8° C., composition pH about 3.5 to 5.0) was ≥ 2 years. The storage duration ([2]; 4° C., GLP-1 concentration up to 2 mg/ml, preservative added) was 2 years, the “Absorption values at 360 nm” value ([3]; pH 3.0, NaCl 0 mg/mL, 35° C.) was 0.0706 and the “Absorption values at 360 nm” value ([3]; pH 3.0, NaCl 0 mg/mL, 45° C.) was 0.0844. The “Absorption values at 360 nm” value ([3]; pH 3.0, NaCl 1.17 mg/mL, 35° C.) was 0.0716, the “Absorption values at 360 nm” value ([3]; pH 3.0, NaCl 1.17 mg/mL, 45° C.) was 0.0724 and the “Absorption values at 360 nm” value ([3]; pH 3.0, NaCl 8.77 mg/mL, 45° C.) was 0.1812. For the same substance, the “Absorption values at 360 nm” value ([3]; pH 3.0, NaCl 29.22 mg/mL, 35° C.) was 0.2052, the “Absorption values at 360 nm” value ([3]; pH 3.0, NaCl 29.22 mg/mL, 45° C.) was 0.2417 and the “Absorption values at 360 nm” value ([3]; pH 3.5, NaCl 0 mg/mL, 35° C.) was 0.0684. The “Absorption values at 360 nm” value ([3]; pH 3.5, NaCl 0 mg/mL, 45° C.) was 0.0689, the “Absorption values at 360 nm” value ([3]; pH 3.5, NaCl 1.17 mg/mL, 35° C.) was 0.0694 and the “Absorption values at 360 nm” value ([3]; pH 3.5, NaCl 1.17 mg/mL, 45° C.) was 0.0823. For the same substance, the “Absorption values at 360 nm” value ([3]; pH 3.5, NaCl 8.77 mg/mL, 35° C.) was 0.1882, the “Absorption values at 360 nm” value ([3]; pH 3.5, NaCl 8.77 mg/mL, 45° C.) was 0.1780 and the “Absorption values at 360 nm” value ([3]; pH 4.0, NaCl 0 mg/mL, 35° C.) was 0.0686. For the same substance, the “Absorption values at 360 nm” value ([3]; pH 4.0, NaCl 0 mg/mL, 45° C.) was 0.0843, the “Absorption values at 360 nm” value ([3]; pH 4.0, NaCl 1.17 mg/mL, 35° C.) was 0.1354 and the “Absorption values at 360 nm” value ([3]; pH 4.0, NaCl 1.17 mg/mL, 45° C.) was 0.1448. The “Absorption values at 360 nm” value ([3]; pH 4.0, NaCl 8.77 mg/mL, 35° C.) was 0.1907, the “Absorption values at 360 nm” value ([3]; pH 4.0, NaCl 8.77 mg/mL, 45° C.) was 0.1974 and the “Absorption values at 360 nm” value ([3]; pH 4.5, NaCl 0 mg/mL, 35° C.) was 0.1326. The “Absorption values at 360 nm” value ([3]; pH 4.5, NaCl 0 mg/mL, 45° C.) was 0.1370, the “Absorption values at 360 nm” value ([3]; pH 4.5, NaCl 1.17 mg/mL, 35° C.) was 0.1655 and the “Absorption values at 360 nm” value ([3]; pH 4.5, NaCl 1.17 mg/mL, 45° C.) was 0.1814. The “Absorption values at 360 nm” value ([3]; pH 7.0, NaCl 0 mg/mL, 35° C.) was 0.0813, the “Absorption values at 360 nm” value ([3]; pH 7.0, NaCl 0 mg/mL, 45° C.) was 0.0828 and the “Absorption values at 360 nm” value ([3]; pH 7.0, NaCl 1.17 mg/mL, 35° C.) was 0.0864. The “Absorption values at 360 nm” value ([3]; pH 7.0, NaCl 1.17 mg/mL, 45° C.) was 0.0865, the “Absorption values at 360 nm” value ([3]; pH 7.0, NaCl 8.77 mg/mL, 35° C.) was 0.0824 and the “Absorption values at 360 nm” value ([3]; pH 7.0, NaCl 8.77 mg/mL, 45° C.) was 0.0841. The “Absorption values at 360 nm” value ([3]; pH 7.0, NaCl 29.22 mg/mL, 35° C.) was 0.0850, the “Absorption values at 360 nm” value ([3]; pH 7.0, NaCl 29.22 mg/mL, 45° C.) was 0.0862 and the physical stability ([3]; pH 7.0 and 7.5) was “normal”. The “Absorption values at 360 nm” value ([3]; pH 7.5, NaCl 0 mg/mL, 35° C.) was 0.0807, the “Absorption values at 360 nm” value ([3]; pH 7.5, NaCl 0 mg/mL, 45° C.) was 0.0859 and the “Absorption values at 360 nm” value ([3]; pH 7.5, NaCl 1.17 mg/mL, 35° C.) was 0.0799. For the same substance, the “Absorption values at 360 nm” value ([3]; pH 7.5, NaCl 1.17 mg/mL, 45° C.) was 0.0937, the “Absorption values at 360 nm” value ([3]; pH 7.5, NaCl 8.77 mg/mL, 35° C.) was 0.0846 and the “Absorption values at 360 nm” value ([3]; pH 7.5, NaCl 8.77 mg/mL, 45° C.) was 0.0902. The “Absorption values at 360 nm” value ([3]; pH 7.5, NaCl 29.22 mg/mL, 35° C.) was 0.0861, the “Absorption values at 360 nm” value ([3]; pH 7.5, NaCl 29.22 mg/mL, 45° C.) was 0.0942 and the physical stability ([4]; between pH 6.8 and 7.5) was “poor”. The chemical stability ([4]; pH value greater than 8.8) was “reduced” and the “appearance of the formulation” value ([4]; pH value less than 8.0 after the addition of a preservative) was “turbid”.
